Measured values: patent US20240043540A1 (Innovent, published 2024)

Assays:
[1] = target: T1, recombinant human 4Ig-B7H3 protein (human, UniProt Q5ZPR3 29-461); assay: bio-layer interferometry (ForteBio), hybridoma antibody
T1 construct: also called human B7H3 protein; SINO BIOLOGICAL Catalog No. 11188-H08H
T1 sequence: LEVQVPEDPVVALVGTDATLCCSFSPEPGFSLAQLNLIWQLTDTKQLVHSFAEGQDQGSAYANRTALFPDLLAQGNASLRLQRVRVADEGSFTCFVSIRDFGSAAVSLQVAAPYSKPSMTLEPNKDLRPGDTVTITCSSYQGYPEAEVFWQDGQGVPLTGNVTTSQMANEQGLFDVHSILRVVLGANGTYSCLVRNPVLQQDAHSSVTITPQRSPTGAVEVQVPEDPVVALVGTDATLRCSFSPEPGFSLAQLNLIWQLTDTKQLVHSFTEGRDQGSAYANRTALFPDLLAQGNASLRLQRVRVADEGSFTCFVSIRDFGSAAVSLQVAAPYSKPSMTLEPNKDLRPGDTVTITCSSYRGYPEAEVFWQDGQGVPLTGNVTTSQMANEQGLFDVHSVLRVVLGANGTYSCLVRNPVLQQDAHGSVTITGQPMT

[2] = target: T2, recombinant cynomolgus monkey B7H3 protein (cynomolgus monkey, UniProt Q7TPB4 26-248 (rat entry)); assay: as above
T2 construct: also called SINO BIOLOGICAL Catalog No. 90806-C02H-50
T2 chain: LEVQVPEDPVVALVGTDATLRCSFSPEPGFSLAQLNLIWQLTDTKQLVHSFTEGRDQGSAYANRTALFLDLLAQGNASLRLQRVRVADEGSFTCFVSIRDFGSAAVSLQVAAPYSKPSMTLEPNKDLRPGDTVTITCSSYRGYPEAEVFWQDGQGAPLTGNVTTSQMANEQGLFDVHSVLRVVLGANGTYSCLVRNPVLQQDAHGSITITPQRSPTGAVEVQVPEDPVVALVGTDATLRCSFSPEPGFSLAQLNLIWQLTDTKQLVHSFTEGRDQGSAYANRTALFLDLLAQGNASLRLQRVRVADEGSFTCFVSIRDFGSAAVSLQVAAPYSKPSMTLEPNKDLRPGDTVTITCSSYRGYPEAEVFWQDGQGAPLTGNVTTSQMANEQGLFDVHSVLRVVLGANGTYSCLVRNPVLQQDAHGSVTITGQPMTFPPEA

[3] = target: T3, cynomolgus monkey B7H3 expressed on CHO cells (CHO-cynoB7H3) (cynomolgus monkey, UniProt Q7TPB4 26-316 (rat entry)); assay: flow cytometry, hybridoma supernatant on CHO-cynoB7H3 cells
T3 chain: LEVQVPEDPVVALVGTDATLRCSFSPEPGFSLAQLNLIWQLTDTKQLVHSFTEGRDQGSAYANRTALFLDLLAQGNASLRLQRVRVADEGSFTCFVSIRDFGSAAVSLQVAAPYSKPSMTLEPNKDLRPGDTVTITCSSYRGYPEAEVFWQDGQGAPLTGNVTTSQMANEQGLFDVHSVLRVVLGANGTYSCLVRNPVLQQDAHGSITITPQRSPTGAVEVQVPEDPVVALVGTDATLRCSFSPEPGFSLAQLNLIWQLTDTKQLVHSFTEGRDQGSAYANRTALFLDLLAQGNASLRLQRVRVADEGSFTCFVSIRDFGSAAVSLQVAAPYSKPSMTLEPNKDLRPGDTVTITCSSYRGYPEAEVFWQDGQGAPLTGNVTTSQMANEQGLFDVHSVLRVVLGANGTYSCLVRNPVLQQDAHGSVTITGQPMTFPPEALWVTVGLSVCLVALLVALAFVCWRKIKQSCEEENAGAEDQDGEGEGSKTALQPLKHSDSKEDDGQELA

B1: 20G5 (hybridoma clone antibody) (antibody, V domains shown)
VH: EVQLQQSVPELVKPGASVKISCKTSGYTFTEYIMHWVKQSHGKNLEWIGGINPNNGGTTYNQKFKDKATLTVDKSSSTAYMELHNLTSEDSAVYYCTRRTPPWHFAVWGAGTSLTVSS
VL: DIVLTQSPTIMSASPGEKVTMTCSASSSVSYIHWYQQKSGTSPKRWIFDTSRLASGVPARFSGSGSGTSYSLTISSMEAEDAATYYCQQWSSAPLTFGTGTTLELK
[1]
  Kd: 0.362 nM
[2]
  Kd: 0.59 nM
[3]
  binding result: binds
